The values below come from the NTF2 design screens of Basanta et al. (2020).

A short description of this data set: protease stability score; higher = more stable; yeast display proteolysis, trypsin and chymotrypsin.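 Further: log10 excess protease needed over predicted unfolded state with 0 meaning unfolded.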

“DESQLELVKELLDVLQTGNPDEARQLVDKDVNIRIGDRVIHGREQLQSHVEKVKREQQVHVNITDMKVKGDKIKVVAQYKNHHNGQPSHNKMVLDAEVNGDKIHRMEYKSQS”: the protease stability score is -0.453.
The same measure for “DESQQKHLTRLLEDNDFDRLAELADKHVRVEYGDQSYQGRETFQEMQEKLKKRADHLTYRSIDNQGDKIKVDFVLNVNGKDVRLQFDFRFNNGHIKEMTITATSEENLHKFEEALS”: -0.094; for “DESQVDEAKKMAKVWEDGDPDQLRRMADPNAKMHIGDKDIRGHTEATRWVRHLSEHMRQRLDSVRVDTEPNRAEAKIQLTVDVNGKPDRYTAHLNMVVDNGRVRKLEVRFDEEDKKRRQS”: -0.139; for “DESRKAREYMDKFKEIMDTGDPDKLRNLVPPDVTMQYGDRSLKGREEFVEHLQELLERADHVDVTVVDVKQDGDQLHFEVRVTYEENGERREYTFVFVAIVQGDKVRVKEMREK”: 0.065.
The same measure for “DESVENTVTEILEAEQQNNEEELRRLADPNAEVRVGEKTIHGMDEAVHQIAHELKQQRVEYSDMKISVNNGRARIDVEVEVEKNGRPHTSHYERTIEMHNGRMTHMEQRDDG”: -0.524; for “DESVKERMKRILETGDWKKLVEMADEDASVKVGEKEFHGREQVSDFFKELQDQADTQEIKHVSVHGEHVVNTMVIRFNGKEVHLVLTVQLTNGKIHSASVKFTSEEHHKIMLRAIS”: 0.257; for “DESVLEMAERIIEAFNNGDPERAVNQADPNVKITVGDKSITGREDLRRELEKQLKEQEQHIQVLRVTDHNGQAQMDIRMTSEKNGNPDHRRATVQFHATNGKLQTMRVDQRG”: -0.599.
“DESVRRNFEDLLRAEETGDPDRVMDLVDPNARIQVGDKYLQGREQIDETMERHKSEIRFSIDRLSATDHNGVVDVTMSMKKNVNGKPKKFRAEVNVKAHNGKLKLLDMKIDG” had a protease stability score of -0.284.
In the case of “DESVTEQANKMLDNIEKNNPEKVREQVDPNAKLQIGDKTLSGREHVQKQVEREMKDISVTRDLKSVNVRNGRAVFDMTVDFDVNGKPIHAHQVMEVQATNGRIKSVTYKIDTEELRKIDK”, the protease stability score was -0.499.
Turning to “DETAARDVEELLTHVKTNNPENVVKLADPNAKAKIGDQTVKGREELTKQMTKELRHQRMSVEIKDYKVHGNKVVIDAEFTYNHNGRPQKKDVEIYVVFRGEKIEKFVWRTDG”, the protease stability score was 0.627.
As for “DETAERLEHQLKSALETGDEESAKKQFDPNVKFQYGDKVIHGMENAIERIVKRLKELHVSVELKSMHVEGNNIQADLVATENHNGQPRTRRFTLHVTWRNGRIQEIRQQDTK”, the protease stability score turned out to be 1.31.
Consider “DETAISVAKTMFEAMESNDPDEVRRQADPNATFVIGDKNYHGMETYAKEVKKRNDKIDVQLQDMDITDQGEDADIKQVAVFTHDGRPKKVVIHWDISVRNGRIKFVHADQRG”, for which the protease stability score was -0.4.
To “DETAKKHFEELMKVWKHGDFRRAQELLDPNVRVVIGDQQFHGREDVAKKIAEHLHRMEVEIKDYRVKNDGEKIHIEVDAVFERNGRPERRRYVAVYRVHNGRFKEMSQQEDK” belongs 1.05.
The same measure for “DETAKKNVELYVQAFEDNDERKLNHMMDPNAHFRIGDRNVHGRDQVKDEVEKRRKEQSVKFKDVKVDVQGDKATIEIRWVVDKNGEPTEDVHKVDLKIHNGRAKYMQWDSVR”: -0.07.
“DETALRIAEDWFRALQNGNPERMQENVDPNARVQIGDKELHGREQIHELAQKIKEEMRIEVNITHVDVHGEHLRLEFDIRVDINGKPVTNHNTAEFNVENGSIKHISFDIDPRQLNKMQK” yielded a protease stability score of 0.746.
Turning to “DETAMEVAERFLENINNGNPEEATKQFDPNARFIVGDKRLTGQEQVKSEIEDQKKHIDVNYDVKRVEIDGDKALLELDVQNEHNGRPRTDSAVITMEAHNGKITHMQRDHDG”, the protease stability score is -0.594.
The same measure for “DETAQDLVTTLIEAWKTNDPDSVANLMDPNATVKIGDKSVHGKKQLEEMLKKLRDEMTIDIKRVDVKVNNGDAKVNARATFTHNGKPDSRTMSAEVEWNGDKVKEFRVHWEQ”: 1.
In turn, “DETAQEQAKKLFQARQTNDPDKVNNLLDENARVNIGDTSVQGREDASKEVERQHRESHQSVELKEVKVDGDHVELHYVLTKQENGKPDSNKASMNVQIHNGKAQDVQIQTSK” yielded a protease stability score of -0.35.
Consider “DETAQKVANQFFEALKNGDPDQVRRLLDKNATVRIGEWQVHGREQASKDVHQNKQHAEYDWRIRSVKVTGNKVDIDAEVTYQHNGEPSRRQMVVNVVVTNGKIQDIHVRDEQ”, for which the protease stability score turned out to be 1.43.
The same measure for “DETAQNLIKELNRAWNENNENQVAELMDPNAKLQIGNKVLTGRKQRMEEIRSQTHSMRLDYKYEDVKAKNGKVTANLRYVADVNGRPVDVTVSVKADVHNGVIVRLEVRLPPDVEEELKR”: 0.219; for “DETARDRLEELWRTMERNDPDKLTRQADKDVEVHVGDKELHGMKQVATTLAHEMREMDVEIEIREVNVQGNNVEVDMIFRAKVNGKPIHNKASFVVTFNNGKAESIELRVPPEFQKQKRK”: -0.222.
Consider “DETARHRLEEMWTNIQRNNPSEVAKLADKDVRVRVGDKEIHGREQLNHHIKRFNDEIRMNVDHISIKVDGNEADIHIRAEFEVNGTPFEMTIDVKISVHNGKIKEIDRQVSEEEKRRLKK”, for which the protease stability score was 0.806.
To “DETASRAAERYMKALQTGDPDEVVKQIDPNVHVRVGDKEVQGKEQFRKKQERDKKQARYHIKHVTFNVEGDKVRVDVIFRKHHNGQPRHDRMEQRMSVRGDKITHQENHKTG” belongs 0.02; to “DETATEAAQRMMDNWRTNSPEDYAKLADKNVEVRVGDKTYTGRDELRSRLQRKREEQHIDLRTYHFRVNGDEVTVRARYIENHNGRPQHKVVRFVFRLHNGRVKEIERHDDS”, 0.22; to “DETAVEIARDFLQAITNNNPQEAERLADPNVRWTVGDKSYSGMNEFSKIIKDLNDRSRFEYTDVKLDVTNGRARIELRMSRTVNGKPQSFDMVMNVVVHNGRIKHVHVHNKQ”, 1.4.
As for “DETAVHAARRYLHAVTEGDPDKVNEQVDPNAKLTYGDKEVHGSSQVKEEVETQNRHSRIQYDSVTFDHQGDKVRADIDMKQDSNGRPKRRKMVVDFRAHNGKLQHVNAQDDN”, the protease stability score is -0.224.
The same measure for “DETAVKVIHKVVEAINTNNPKQVMKNMDKDVHITVGDKEYEGKEEFAKQVERDLREQRVDIDIKRLNVHNGKVHVKFTAQQQINGKPISYKATARAEVQNGKVQHMEIRVPEELQRKRES”: -0.272.
Take “DETAVRVFRKIEDAYQKGDPDKITNLLDENVEMHVGDKRVHGRETMAEHLKKQLDEIRQKIKSVTLHDKGDTIRIDVLMVEEHNGQPRESRYHVHAKIHNGKMKEREQTSVQ”: the protease stability score was -0.095.
To “DETAVTVLTEIVKAQRQGDHNRFNELVDPNAKIRVGDKRVTGREQLTHEFHKNLKHMRVHQKVHDMKDHNGRVQATAQRRSNHNGKPKEVEVQFQATARNGRLTQMEMHSSG” belongs -0.643; to “DETDKAHEFMRKMKRALDQNDPDKLMDLFDPNAKVKVGEKKIHGRERISNDLQRHAHNADHIHMEIQDMKVSGDKINITFRVTSVVNGNTRSNRVLIRARIDNGHIKAVDVQQK”, 0.855.
The same measure for “DETDKAQKQFEHYERIAHTGDPDEMQRQADENARVEYGDKEVRGRKDVKKWAKDIKDTVDSVEFDIKSFEVQGDKITINVNIVYRSDGRQQSMEVNMVFDVRGDDIQIRSMKFR”: 0.434; for “DETDLEKFATIVQQNNPHEFKKLLPEDAKMTYGDKTVHGREEIQRILENLVKDVDRLRIKHYKISGDKIEIDLVVNVNGRNIRFSLRAKMHNGQIKFFEIEVRDDDVKHELEKMLS”: 0.069; for “DETDLERWARTFIEVFQTGDENRFRKMVDPNARLNVGEKNVHGKEEMAKAAKKLRDKVDHMHVRDLQINPPTIEIHIDFHHNGQKRSQVYYVEMHNGRVTEIHVQTS”: 1.05.
To “DETDLLRKLIHHLKTAVDEGDPDKYVKNFDPNAKIDVGDKQWHGHDEIRKKMEDLVRQADHVRLTIDHMQVQGDKFNIHATIKYDNNGEDVERKFVLTATKKGDKAKAEFVTEQ” belongs 0.895.
